Results taken from the supplement of paper PMC11246515.
± gives the standard deviation of the averaged measurements.

Assay: total protein half-life in vivo (active degradation + dilution); higher = more stable protein
[1] = E. coli NCM3722 delta-clpP delta-lon delta-hslV, growth: N-lim chemostat, doubling time 6 h
[2] = E. coli NCM3722 delta-clpP, growth: N-lim chemostat, doubling time 6 h
[3] = E. coli NCM3722 delta-smpB, growth: N-lim chemostat, doubling time 6 h
[4] = wild type E. coli NCM3722, growth: C-lim chemostat, doubling time 6 h
[5] = wild type E. coli NCM3722, growth: N-lim chemostat, doubling time 6 h
[6] = wild type E. coli NCM3722, growth: N-lim chemostat, doubling time 12 h
[7] = wild type E. coli NCM3722, growth: P-lim chemostat, doubling time 6 h
[8] = wild type E. coli NCM3722, growth: P-lim chemostat, doubling time 12 h
[9] = E. coli NCM3722 delta-hslV, growth: N-lim chemostat, doubling time 6 h
[10] = E. coli NCM3722 delta-lon, growth: N-lim chemostat, doubling time 6 h
[11] = wild type E. coli NCM3722, growth: C-lim chemostat, doubling time 3 h
[12] = wild type E. coli NCM3722, growth: C-lim chemostat, doubling time 12 h

Sequence | total protein half-life in vivo [1] [h] | total protein half-life in vivo [2] [h] | total protein half-life in vivo [3] [h] | total protein half-life in vivo [4] [h] | total protein half-life in vivo [5] [h] | total protein half-life in vivo [6] [h] | total protein half-life in vivo [7] [h] | total protein half-life in vivo [8] [h] | total protein half-life in vivo [9] [h] | total protein half-life in vivo [10] [h] | total protein half-life in vivo [11] [h] | total protein half-life in vivo [12] [h]
MLYIFRLIITVIYSILVCVFGSIYCLFSPRNPKHVATFGHMFGRLAPLFGLKVECRKPTDAESYGNAIYIANHQNNYDMVTASNIVQPPTVTVGKKSLLWIPFFGQLYWLTGNLLIDRNNRTKAHGTIAEVVNHFKKRRISIWMFPEGTRSRGRGLLPFKTGAFHAAIAAGVPIIPVCVSTTSNKINLNRLHNGLVIVEMLPPIDVSQYGKDQVRELAAHCRSIMEQKIAELDKEVAEREAAGKV | 5.89 | 6.07 ± 0.43 | 4.95 | 6.42 | 5.93 ± 0.29 | 12.2 ± 1.3 | 6.42 ± 1.2 | 11.8 ± 0.39 | – | – | – | –
MTGMTNVTKLASEPSGQEFLVFTLGDEEYGIDILKVQEIRGYDQVTRIANTPAFIKGVTNLRGVIVPIVDLRIKFSQVDVDYNDNTVVIVLNLGQRVVGIVVDGVSDVLSLTAEQIRPAPEFAVTLSTEYLTGLGALGDRMLILVNIEKLLNSEEMALLDSAASEVA [P0A964] | 5.19 ± 0.61 | 4.56 ± 0.37 | > 8 | 1.86 ± 0.086 | 1.74 | 2.23 | 0.859 | 9.75 | 5.25 | 5.4 ± 0.52 | 1.741 ± 0.013 | 3.67 ± 1.6
MKKNQFLKESDVTAESVFFMKRRQVLKALGISATALSLPHAAHADLLSWFKGNDRPPAPAGKALEFSKPAAWQNNLPLTPADKVSGYNNFYEFGLDKADPAANAGSLKTDPWTLKISGEVAKPLTLDHDDLTRRFPLEERIYRMRCVEAWSMVVPWIGFPLHKLLALAEPTSNAKYVAFETIYAPEQMPGQQDRFIGGGLKYPYVEGLRLDEAMHPLTLMTVGVYGKALPPQNGAPVRLIVPWKYGFKGIKSIVSIKLTRERPPTTWNLAAPDEYGFYANVNPYVDHPRWSQATERFIGSGGILDVQRQPTLLFNGYAAQVASLYRGLDLRENF | 4.835 ± 0.0049 | 5.46 ± 0.24 | 5.33 ± 0.3 | 5.58 ± 0.24 | 5.79 ± 0.18 | 11.9 ± 0.43 | 5.91 ± 0.19 | 11.9 ± 0.57 | 5.75 ± 0.17 | 5.98 ± 0.35 | 2.98 ± 0.034 | 8.4 ± 0.38
MNISSLRKAFIFMGAVAALSLVNAQSALAANESAKDMTCQEFIDLNPKAMTPVAWWMLHEETVYKGGDTVTLNETDLTQIPKVIEYCKKNPQKNLYTFKNQASNDLPN [P0AET2] | – | > 8 | – | – | – | – | – | – | – | – | – | –
MMSLAWPLFRVTEQAALAAWPQTGCGDKNKIDGLAVTAMRQALNDVAFRGRVVIGEGEIDHAPMLWIGEEVGKGDGPEVDIAVDPIEGTRMVAMGQSNALAVMAFAPRDSLLHAPDMYMKKLVVNRLAAGAIDLSLPLTDNLRNVAKALGKPLDKLRMVTLDKPRLSAAIEEATQLGVKVFALPDGDVAASVLTCWQDNPYDVMYTIGGAPEGVISACAVKALGGDMQAELIDFCQAKGDYTENRQIAEQERKRCKAMGVDVNRVYSLDELVRGNDILFSATGVTGGELVNGIQQTANGVRTQTLLIGGADQTCNIIDSLH | 3.96 | – | – | – | – | – | – | – | – | – | – | –
MAAQGFLLIATFLLVLMVLARPLGSGLARLINDIPLPGTTGVERVLFRALGVSDREMNWKQYLCAILGLNMLGLAVLFFMLLGQHYLPLNPQQLPGLSWDLALNTAVSFVTNTNWQSYSGETTLSYFSQMAGLTVQNFLSAASGIAVIFALIRAFTRQSMSTLGNAWVDLLRITLWVLVPVALLIALFFIQQGALQNFLPYQAVNTVEGAQQLLPMGPVASQEAIKMLGTNGGGFFNANSSHPFENPTALTNFVQMLAIFLIPTALCFAFGEVMGDRRQGRMLLWAMSVIFVICVGVVMWAEVQGNPHLLALGTDSSINMEGKESRFGVLVSSLFAVVTTAASCGAVIAMHDSFTALGGMVPMWLMQIGEVVFGGVGSGLYGMMLFVLLAVFIAGLMIGRTPEYLGKKIDVREMKLTALAILVTPTLVLMGAALAMMTDAGRSAMLNPGPHGFSEVLYAVSSAANNNGSAFAGLSANSPFWNCLLAFCMFVGRFGVIIPVMAIAGSLVSKKSQAASSGTLPTHGPLFVGLLIGTVLLVGALTFIPALALGPVAEYLS | – | – | – | – | – | – | 5.85 | – | – | – | – | –
MSHNVTPNTSRVELRKTLTLVPVVMMGLAYMQPMTLFDTFGIVSGLTDGHVPTAYAFALIAILFTALSYGKLVRRYPSAGSAYTYAQKSISPTVGFMVGWSSLLDYLFAPMINILLAKIYFEALVPSIPSWMFVVALVAFMTAFNLRSLKSVANFNTVIVVLQVVLIAVILGMVVYGVFEGEGAGTLASTRPFWSGDAHVIPMITGATILCFSFTGFDGISNLSEETKDAERVIPRAIFLTALIGGMIFIFATYFLQLYFPDISRFKDPDASQPEIMLYVAGKAFQVGALIFSTITVLASGMAAHAGVARLMYVMGRDGVFPKSFFGYVHPKWRTPAMNIILVGAIALLAINFDLVMATALINFGALVAFTFVNLSVISQFWIREKRNKTLKDHFQYLFLPMCGALTVGALWVNLEESSMVLGLIWAAIGLIYLACVTKSFRNPVPQYEDVA [P0AA47] | – | – | – | – | – | – | – | – | – | – | 0.699 ± 0.063 | –
MATLTAKNLAKAYKGRRVVEDVSLTVNSGEIVGLLGPNGAGKTTTFYMVVGIVPRDAGNIIIDDDDISLLPLHARARRGIGYLPQEASIFRRLSVYDNLMAVLQIRDDLSAEQREDRANELMEEFHIEHLRDSMGQSLSGGERRRVEIARALAANPKFILLDEPFAGVDPISVIDIKRIIEHLRDSGLGVLITDHNVRETLAVCERAYIVSQGHLIAHGTPTEILQDEHVKRVYLGEDFRL [P0A9V1] | 6.21 ± 0.31 | 6.33 ± 0.48 | 5.51 ± 0.55 | 6.061 ± 0.04 | 5.52 ± 0.24 | 13.3 ± 0.87 | 5.46 ± 0.24 | 12.4 ± 0.82 | 5.919 ± 0.031 | 6.05 ± 0.57 | 2.811 ± 0.004 | 11.2 ± 0.66
MRRLRFSPRSSFARTLLLIVTLLFASLVTTYLVVLNFAILPSLQQFNKVLAYEVRMLMTDKLQLEDGTQLVVPPAFRREIYRELGISLYSNEAAEEAGLRWAQHYEFLSHQMAQQLGGPTEVRVEVNKSSPVVWLKTWLSPNIWVRVPLTEIHQGDFSPLFRYTLAIMLLAIGGAWLFIRIQNRPLVDLEHAALQVGKGIIPPPLREYGASEVRSVTRAFNHMAAGVKQLADDRTLLMAGVSHDLRTPLTRIRLATEMMSEQDGYLAESINKDIEECNAIIEQFIDYLRTGQEMPMEMADLNAVLGEVIAAESGYEREIETALYPGSIEVKMHPLSIKRAVANMVVNAARYGNGWIKVSSGTEPNRAWFQVEDDGPGIAPEQRKHLFQPFVRGDSARTISGTGLGLAIVQRIVDNHNGMLELGTSERGGLSIRAWLPVPVTRAQGTTKEG [P0AEJ4] | 6.372 ± 0.049 | 7.33 ± 0.82 | 6.14 ± 0.39 | 6.16 ± 0.14 | 6.35 ± 0.27 | 13.1 ± 0.43 | 6.87 ± 0.93 | 14.12 ± 0.043 | 6.19 ± 0.26 | 6.19 ± 0.32 | 3.2 ± 0.14 | –
MRVDAIAKVTGRARYTDDYVMAGMCYAKYVRSPIAHGYAVSINDEQARSLPGVLAIFTWEDVPDIPFATAGHAWTLDENKRDTADRALLTRHVRHHGDAVAIVVARDELTAEKAAQLVSIEWQELPVITTPEAALAEDAAPIHNGGNLLKQSTMSTGNVQQTIDAADYQVQGHYQTPVIQHCHMESVTSLAWMEDDSRITIVSSTQIPHIVRRVVGQALDIPWSCVRVIKPFVGGGFGNKQDVLEEPMAAFLTSKLGGIPVKVSLSREECFLATRTRHAFTIDGQMGVNRDGTLKGYSLDVLSNTGAYASHGHSIASAGGNKVAYLYPRCAYAYSSKTCYTNLPSAGAMRGYGAPQVVFAVESMLDDAATALGIDPVEIRLRNAAREGDANPLTGKRIYSAGLPECLEKGRKIFEWEKRRAECQNQQGNLRRGVGVACFSYTSNTWPVGVEIAGARLLMNQDGTINVQSGATEIGQGADTVFSQMVAETVGVPVSDVRVISTQDTDVTPFDPGAFASRQSYVAAPALRSAALLLKEKIIAHAAVMLHQSAMNLTLIKGHIVLVERPEEPLMSLKDLAMDAFYHPERGGQLSAESSIKTTTNPPAFGCTFVDLTVDIALCKVTINRILNVHDSGHILNPLLAEGQVHGGMGMGIGWALFEEMIIDAKSGVVRNPNLLDYKMPTMPDLPQLESAFVEINEPQSAYGHKSLGEPPIIPVAAAIRNAVKMATGVAINTLPLTPKRLYEEFHLAGLI | 5 | – | – | 2.81 ± 0.68 | – | – | – | – | – | – | 1.88 ± 0.088 | 3.56 ± 1.4
MKALTYHGPHHVQVENVPDPGVEQADDIILRITATAICGSDLHLYRGKIPQVKHGDIFGHEFMGEVVETGKDVKNLQKGDRVVIPFVIACGDCFFCRLQQYAACENTNAGKGAALNKKQIPAPAALFGYSHLYGGVPGGQAEYVRVPKGNVGPFKVPPLLSDDKALFLSDILPTAWQAAKNAQIQQGSSVAVYGAGPVGLLTIACARLLGAEQIFVVDHHPYRLHFAADRYGAIPINFDEDSDPAQSIIEQTAGHRGVDAVIDAVGFEAKGSTTETVLTNLKLEGSSGKALRQCIAAVRRGGIVSVPGVYAGFIHGFLFGDAFDKGLSFKMGQTHVHAWLGELLPLIEKGLLKPEEIVTHYMPFEEAARGYEIFEKREEECRKVILVPGAQSAEAAQKAVSGLVNAMPGGTI | 5.38 ± 0.18 | – | 3.69 ± 2.5 | 0.447 | 4.75 ± 0.35 | 7.88 ± 0.2 | 4.4 ± 0.32 | 13.1 ± 3.3 | 4.446 ± 0.011 | 4.83 ± 0.24 | – | 10.2
